Data reported in publication PMC8477192, “An ionic lock and a hydrophobic zipper mediate the coupling between an insect pheromone receptor BmOR3 and downstream effectors” (The Journal of Biological Chemistry, 2021).

How the values were obtained:
YFP-BmOR3 [1] = target: T1, YFP-BmOR3 (Bombyx mori, UniProt Q5FBE0 1-439); experiment: FRET or BRET; arrestin recruitment BRET in living HEK293 cells; YFP-BmOR3 (WT or mutant) with Rluc-fused arrestin; bombykal for 10 min; pertussis toxin without effect; enhanced by BmOrco coexpression
T1 construct: BmOR3, pheromone (bombykal) receptor of Bombyx mori; also called N-terminal YFP-tagged BmOR3; YFP-WT-BmOR3; source: HEK293, transfected, in living cells; not shown: YFP, N-terminal, kept
T1 sequence (looked up): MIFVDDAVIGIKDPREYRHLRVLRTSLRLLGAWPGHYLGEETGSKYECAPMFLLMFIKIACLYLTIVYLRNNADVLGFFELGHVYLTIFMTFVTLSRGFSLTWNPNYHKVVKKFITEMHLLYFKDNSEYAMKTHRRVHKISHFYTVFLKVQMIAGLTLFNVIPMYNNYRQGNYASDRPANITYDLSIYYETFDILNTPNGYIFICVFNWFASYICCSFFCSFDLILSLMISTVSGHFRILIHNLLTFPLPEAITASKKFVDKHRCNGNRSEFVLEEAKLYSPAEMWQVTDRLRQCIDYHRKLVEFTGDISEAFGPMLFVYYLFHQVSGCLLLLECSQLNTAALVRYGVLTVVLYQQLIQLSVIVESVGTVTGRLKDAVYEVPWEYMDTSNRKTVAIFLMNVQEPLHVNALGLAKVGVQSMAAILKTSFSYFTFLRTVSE

YFP-BmOrco (Bombyx mori) [2] = experiment: FRET or BRET; saturation BRET in living HEK293 cells, no agonist; fixed Rluc donor, increasing YFP acceptor plasmid; coelenterazine h 5 μM; Lyn-YFP as negative control
YFP-BmOrco (Bombyx mori) [3] = experiment: FRET or BRET; intermolecular BRET in living HEK293 cells after bombykal for 5 min (dose response or ΔBRET); Rluc-BmOR3 with YFP-BmOrco, or Rluc-BmOrco with YFP-BmOR3; pretreatment with 100 ng/ml pertussis toxin without significant effect
YFP-BmOR3 [4] = target: T1, YFP-BmOR3; experiment: intermolecular BRET; details: bombykal-induced, read off a plot
[5] = target: Rluc-BmOrco (Bombyx mori)
Rluc-BmOrco = experiment: intermolecular BRET; details: bombykal-induced, read off a plot
[6] = HEK293 cells, parent: est. 0.027
[7] = HEK293 cells, parent: est. 0.053

Substance	response (YFP-BmOR3 [4]; [6])	response (Rluc-BmOrco; [7])	other results
Rluc-BmArr (natural protein)			EC50 of bombykal for the BRET increase (quantity not given) (YFP-BmOR3 [1]): 0.09 µM
Rluc-BmOR3 (receptor)			BRET50 (receptor expression ratio) (receptor expression ratio) (YFP-BmOrco (Bombyx mori) [2]): 1; EC50 of bombykal for the BRET increase (YFP-BmOrco (Bombyx mori) [3]): 0.036 µM
Rluc-BmOrco F427A; I430A	0.031 ΔBRET		
YFP-BmOR3 (from UniProt Q5FBE0 1-439) (receptor)			bombykal (1 μM)-stimulated Ca2+ response (CalfluxVTN BRET sensor) in HEK293 cells coexpressing BmOR3 and BmOrco, relative to angiotensin II through AT1R (% of the AT1R response) [5]: 70
YFP-BmOR3 (from UniProt Q5FBE0) E403K			response (Rluc-BmOrco; parent: est. 0.038): 0 ΔBRET
YFP-BmOR3 (from UniProt Q5FBE0) F428A; F433A		0.003 ΔBRET	response (Rluc-BmOrco; parent: est. 0.015): 0.003 ΔBRET
YFP-BmOR3 (from UniProt Q5FBE0) I396A; M399A		0.042 ΔBRET	
YFP-BmOR3 (from UniProt Q5FBE0) L410A; L412A		0.04 ΔBRET	

The next lines start with results.

response (YFP-BmOR3 [4]; [6])	response (Rluc-BmOrco; [7])	Substance	other results
0.005 ΔBRET		Rluc-BmOrco K437E	response (YFP-BmOR3 [4]; parent: est. 0.038): 0 ΔBRET
0.029 ΔBRET		Rluc-BmOrco L451A; L458A	
0.031 ΔBRET		Rluc-BmOrco V428A; V431A	
-0.006 ΔBRET		Rluc-BmOrco Y464A; V467A; L468A; L471A	response (YFP-BmOR3 [4]; parent: est. 0.015): -0.005 ΔBRET
	0.041 ΔBRET	YFP-BmOR3 (from UniProt Q5FBE0) R391E; K392E	
